Assay results from PMC7110144.

Assays:
[1] = molecular target: His-CAL1(1-50) (Drosophila melanogaster) (UniProt Q9VEN2); assay: SEC-MALS; complexes refolded from recombinant proteins; Superdex 200 increase 10/300 GL, 50 mM HEPES pH 8.0, 2 M NaCl, 1 mM TCEP, 22°C; 100 µl of 1-5 mg/ml
[2] = molecular target: His-CAL1(1-160) (Drosophila melanogaster) (UniProt Q9VEN2); assay: as above
Chain of His-CAL1(1-160) (Drosophila melanogaster) (Q9VEN2 entry or part of it): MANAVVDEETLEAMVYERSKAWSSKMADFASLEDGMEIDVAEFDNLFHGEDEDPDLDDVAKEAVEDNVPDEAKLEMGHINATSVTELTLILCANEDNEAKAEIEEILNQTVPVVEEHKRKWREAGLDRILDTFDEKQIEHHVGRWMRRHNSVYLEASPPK

Chain of CENP-A(144-225)-H4 (Q9V6Q2 144-225, one chain of several): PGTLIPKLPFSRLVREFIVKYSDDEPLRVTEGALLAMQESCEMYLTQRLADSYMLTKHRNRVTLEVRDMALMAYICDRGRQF
Chain of CENP-A(101-225)-H4 (from UniProt Q9V6Q2 101-225; P84040 1-103) (complex) (Q9V6Q2 101-225, one chain of several): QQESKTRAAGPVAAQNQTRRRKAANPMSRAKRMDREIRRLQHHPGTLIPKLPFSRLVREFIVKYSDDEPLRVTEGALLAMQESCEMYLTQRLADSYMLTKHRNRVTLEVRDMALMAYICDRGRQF
Chain of CENP-A(101-225)-H4 (from UniProt Q9V6Q2 101-225; P84040 1-103) (complex; other documents disagree on this pair) (Q9V6Q2 101-225, one chain of several): as above
Chain of His-CAL1(1-50) (Drosophila melanogaster) (Q9VEN2 entry or part of it): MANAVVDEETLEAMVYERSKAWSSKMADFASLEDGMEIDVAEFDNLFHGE

stoichiometry N (CAL1:CENP-A:H4 = 1:1:1) [1]	stoichiometry N (CAL1:CENP-A:H4 = 1:1:1) [2]	Substance
1	–	CENP-A(101-225)-H4 (from UniProt Q9V6Q2 101-225; P84040 1-103) (complex)
–	1	CENP-A(101-225)-H4 (from UniProt Q9V6Q2 101-225; P84040 1-103) (complex; other documents disagree on this pair)
–	1	CENP-A(144-225)-H4 (from UniProt Q9V6Q2 144-225; P84040 1-103) (complex; other documents disagree on this pair)
